Data from article PMC5500549, “DNA binding strength increases the processivity and activity of a Y-Family DNA polymerase” (Scientific Reports, 2017).

Assays:
[1] = test system: SdbhI62V (Sulfolobus acidocaldarius (Dbh); Sso7d source organism not stated); assay: fluorescence titration (2AP); details: 2-aminopurine at the primer terminus; 50 mM Tris acetate pH 7.5, 50 mM sodium acetate, 10 mM magnesium acetate, 5 mM DTT, 0.05% Tween 20, 25 °C; 100 nM 2AP-P/T, 0-1000 nM pol
[2] = test system: SdbhT37F (Sulfolobus acidocaldarius (Dbh); Sso7d source organism not stated); assay: fluorescence titration (2AP); details: 2-aminopurine at the primer terminus; 50 mM Tris acetate pH 7.5, 50 mM sodium acetate, 10 mM magnesium acetate, 5 mM DTT, 0.05% Tween 20, 25 °C; 100 nM 2AP-P/T, 0-1000 nM pol
[3] = test system: SdbhA221S (Sulfolobus acidocaldarius (Dbh); Sso7d source organism not stated); assay: fluorescence titration (2AP); details: 10 mM Mg2+; 2-aminopurine at the primer terminus; 50 mM Tris acetate pH 7.5, 50 mM sodium acetate, 10 mM magnesium acetate, 5 mM DTT, 0.05% Tween 20, 25 °C; 100 nM 2AP-P/T, 0-1000 nM pol
[4] = test system: SdbhL250V (Sulfolobus acidocaldarius (Dbh); Sso7d source organism not stated); assay: fluorescence titration (2AP); details: 2-aminopurine at the primer terminus; 50 mM Tris acetate pH 7.5, 50 mM sodium acetate, 10 mM magnesium acetate, 5 mM DTT, 0.05% Tween 20, 25 °C; 100 nM 2AP-P/T, 0-1000 nM pol
[5] = test system: SdbhKSKIP241-245RVRKS (Sulfolobus acidocaldarius (Dbh); Sso7d source organism not stated); assay: fluorescence titration (2AP); details: 2-aminopurine at the primer terminus; 50 mM Tris acetate pH 7.5, 50 mM sodium acetate, 10 mM magnesium acetate, 5 mM DTT, 0.05% Tween 20, 25 °C; 100 nM 2AP-P/T, 0-1000 nM pol
[6] = test system: SdbhM76I (Sulfolobus acidocaldarius (Dbh); Sso7d source organism not stated); assay: fluorescence titration (2AP); details: 2-aminopurine at the primer terminus; 50 mM Tris acetate pH 7.5, 50 mM sodium acetate, 10 mM magnesium acetate, 5 mM DTT, 0.05% Tween 20, 25 °C; 100 nM 2AP-P/T, 0-1000 nM pol
[7] = test system: Sdbh (Sso7d-Dbh fusion) (Sulfolobus acidocaldarius (Dbh); Sso7d source organism not stated); assay: fluorescence titration (2AP); details: 2-aminopurine at the primer terminus; 50 mM Tris acetate pH 7.5, 50 mM sodium acetate, 10 mM magnesium acetate, 5 mM DTT, 0.05% Tween 20, 25 °C; 100 nM 2AP-P/T, 0-1000 nM pol
[8] = test system: SdbhY249I (Sulfolobus acidocaldarius (Dbh); Sso7d source organism not stated); assay: fluorescence titration (2AP); details: 2-aminopurine at the primer terminus; 50 mM Tris acetate pH 7.5, 50 mM sodium acetate, 10 mM magnesium acetate, 5 mM DTT, 0.05% Tween 20, 25 °C; 100 nM 2AP-P/T, 0-1000 nM pol
[9] = test system: Dbh (WT) (Sulfolobus acidocaldarius); assay: fluorescence titration (2AP); details: 2-aminopurine at the primer terminus; 50 mM Tris acetate pH 7.5, 50 mM sodium acetate, 10 mM magnesium acetate, 5 mM DTT, 0.05% Tween 20, 25 °C; 100 nM 2AP-P/T, 0-1000 nM pol
[10] = test system: SdbhK337R (Sulfolobus acidocaldarius (Dbh); Sso7d source organism not stated); assay: fluorescence titration (2AP); details: 2-aminopurine at the primer terminus; 50 mM Tris acetate pH 7.5, 50 mM sodium acetate, 10 mM magnesium acetate, 5 mM DTT, 0.05% Tween 20, 25 °C; 100 nM 2AP-P/T, 0-1000 nM pol
[11] = substrate: Nc1ccn([C@H]2C[C@H](O)[C@@H](COP(=O)(O)OP(=O)(O)OP(=O)(O)O)O2)c(=O)n1; assay: steady-state single-nucleotide insertion, FAM-primer gel assay; type: biochemical, Sulfolobus acidocaldarius; details: opposite template G (correct), 1.0 μM primer-template, 20 nM pol, 5 mM MgCl2, 100 mM KCl, pH 7.5, 37 °C, apparent Km
Description: (§1) steady-state single-nucleotide insertion, FAM-primer gel assay on Dbh (WTDbh)

[12] = substrate: Nc1ncnc2c1ncn2[C@H]1C[C@H](O)[C@@H](COP(=O)(O)OP(=O)(O)OP(=O)(O)O)O1; assay: as above; type: biochemical, Sulfolobus acidocaldarius; details: opposite template G (incorrect, misinsertion), 1.0 μM primer-template, 20 nM pol, 5 mM MgCl2, 100 mM KCl, pH 7.5, 37 °C, apparent Km
Description: as §1

Row | Molecule | Kd [1] | Kd [2] | Kd [3] | Kd [4] | Kd [5] | Kd [6] | Kd [7] | Kd [8] | Kd [9] | Kd [10] | Km [11] | Vmax [11] | Km [12] | Vmax [12]
1 | 2AP-P/T primer-template | 49.8 nM | 49.7 nM | 47.5 nM | 50.4 nM | 34.8 nM | 42.8 nM | 51.2 nM | 56.2 nM | 54.8 nM | 55.5 nM | – | – | – | –
2 | Dbh (WTDbh) (Sulfolobus acidocaldarius DSM 639) (protein, synthetic gene, 6xHis tag (C-terminal by gene design, N-terminal by purification), expressed in E. coli BL21(DE3), Ni-NTA and Mono-S) MIVIFVDFDYFFAQVEEVLNPQYKGKPLVVCVYSGRTKTSGAVATANYEARKLGVKAGMPIIKAMQIAPSAIYVPMRKPIYEAFSNRIMNLLNKHADKIEVASIDEAYLDVTNKVEGNFENGIELARKIKQEILEKEKITVTVGVAPNKILAKIIADKSKPNGLGVIRPTEVQDFLNELDIDEIPGIGSVLARRLNELGIQKLRDILSKNYNELEKITGKAKALYLLKLAQNKYSEPVENKSKIPHGRYLTLPYNTRDVKVILPYLKKAINEAYNKVNGIPMRITVIAIMEDLDILSKGKKFKHGISIDNAYKVAEDLLRELLVRDKRRNVRRIGVKLDNIIINKTNLSDFFDI | – | – | – | – | – | – | – | – | – | – | 88.2 ± 12.0 µM | 0.001 µM/min | 215.2 ± 18.7 µM | 1.9e-05 µM/min
